Assay results from patent US20210347894A1 (JIANGSU HANSOH PHARMACEUTICAL GROUP, published 2021).

T1: human 4Ig-B7H3 antigen (SinoBiological cat#11188-H08H) (human, UniProt Q5ZPR3 29-461)
T1 construct: Commercial product; The entry as printed is the B7H3 extracellular region (4Ig form) followed by a His-tag; also called Human 41g-B7H3; human B7H3 antigen for detection
T1 sequence: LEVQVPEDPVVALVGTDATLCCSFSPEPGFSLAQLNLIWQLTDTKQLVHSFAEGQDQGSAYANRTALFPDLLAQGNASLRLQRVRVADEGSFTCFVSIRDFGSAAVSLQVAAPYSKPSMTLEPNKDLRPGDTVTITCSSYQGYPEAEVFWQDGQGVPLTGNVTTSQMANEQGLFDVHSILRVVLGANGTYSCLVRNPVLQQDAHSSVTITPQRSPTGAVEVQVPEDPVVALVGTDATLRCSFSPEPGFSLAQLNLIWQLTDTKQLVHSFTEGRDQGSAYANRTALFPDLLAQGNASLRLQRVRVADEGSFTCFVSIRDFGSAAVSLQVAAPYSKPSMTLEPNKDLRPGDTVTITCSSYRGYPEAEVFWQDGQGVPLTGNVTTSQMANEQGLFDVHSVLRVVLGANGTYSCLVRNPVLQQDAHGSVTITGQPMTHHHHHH

T2: human 2Ig-B7H3 antigen (R&D cat#1949-B3-050/CF) (human, UniProt Q5ZPR3 29-245)
T2 construct: Commercial product; The entry as printed is the B7H3 extracellular region (2Ig form) followed by a His-tag; also called human B7H3 antigen for screening and detection
T2 sequence: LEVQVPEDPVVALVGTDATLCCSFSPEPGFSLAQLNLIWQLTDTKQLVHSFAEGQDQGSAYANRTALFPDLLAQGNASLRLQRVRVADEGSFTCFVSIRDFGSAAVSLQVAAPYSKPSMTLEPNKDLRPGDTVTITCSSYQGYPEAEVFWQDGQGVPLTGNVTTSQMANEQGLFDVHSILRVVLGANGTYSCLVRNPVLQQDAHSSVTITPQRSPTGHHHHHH


Legend:
[1] = target: T1, human 4Ig-B7H3 antigen (SinoBiological …); experiment: SPR (Biacore T200), ADC captured on Protein A chip, antigen flowed over, 1:1 Langmuir fit
Text: (§1) A biosensor chip Protein A (Cat.#29127556, GE) was used to affinity capture a certain amount of antibody/ADC to be tested. Series diluted human 2Ig-B7H3 antigen (Cat.#1949-B3-050/CF, R&D) and human 4Ig-B7H3 antigen (Cat.#11188-H08H, Sino Biological) were flowed through the surface of the chip. Real-time reaction signal was detected by using Biacore instrument (Biacore T200, GE) to obtain the association and dissociation curves. After completion of each cycle of dissociation, the biochip was washed and regenerated with glycine-hydrochloric acid regeneration solution (pH 1.5) (Cat.# BR-1003-54, GE). The buffer used in the experiment was HBS-EP buffer solution (pH 7.4) (Cat.# BR-1001-88, GE).
(§2) The experimental data was fitted with BIAevaluation version 4.1 GE software in a (1:1) Langmuir model to obtain affinity values.

[2] = target: T2, human 2Ig-B7H3 antigen (R&D …); experiment: SPR (Biacore T200), antibody captured on Protein A chip, antigen flowed over, 1:1 Langmuir fit
Text: as §1, §2

[3] = target: T1, human 4Ig-B7H3 antigen (SinoBiological …); experiment: as above
Text: as §1, §2

Binder | Kd [1] [nM] | Kd [2] [nM] | Kd [3] [nM]
ADC-2 (antibody 1702DS conjugated with compound 5-A, formula FADC-2, n=7.24) (antibody, human IgG1, lambda, linker-drug compound 5-A (maleimide-GGFG-exatecan analog) coupled after TCEP reduction of the antibody's disulfide bonds; average n=7.24 per antibody; positions not given, Antibody-drug conjugate; also called B7H3-ADC) heavy: not shown light: DTVVTQEPSFSVSPGGTVTLTCGLSSGSVSTSHYPSWYQQTPGQAPRMLIYNTNTRSSGVPDRFSGSILGNKAALTITGAQADDESDYYCAIHVDRDIWVFGGGTKLTVLGQPKANPTVTLFPPSSEELQANKATLVCLISDFYPGAVTVAWKADGSPVKAGVETTKPSKQSNNKYAASSYLSLTPEQWKSHRSYSCQVTHEGSTVEKTVAPTEC | 7.55 |  | 
h1702 antibody (antibody, human IgG1, lambda, Fully human IgG1/lambda full-length antibody from a phage library, expressed in HEK293E cells; also called B7H3 antibody h1702; anti-B7H3 antibody) heavy: not shown light: QTVVTQEPSFSVSPGGTVTLTCGLSSGSVSTSHYPSWYQQTPGQAPRMLIYNTNTRSSGVPDRFSGSILGNKAALTITGAQADDESDYYCAIHVDRDIWVFGGGTKLTVLGQPKANPTVTLFPPSSEELQANKATLVCLISDFYPGAVTVAWKADGSPVKAGVETTKPSKQSNNKYAASSYLSLTPEQWKSHRSYSCQVTHEGSTVEKTVAPTECS |  | 797 | 8.55
